Here are results for 4 molecules from patent US20240307455A1, “COMPOSITIONS, DEVICES AND METHODS FOR TREATING IMMUNE-MEDIATED INFLAMMATORY DISEASES” (SIGILON THERAPEUTICS, INC., priority 2021, published 2024).

For series [1] the following is noted: in vivo; cited from earlier work.
The subject of series [2] is Colo205 cells. Nature of the series: Induction of IL-10 production by Colo205 cells (ELISA). Conditions: ~18 h incubation. It counts as cell-based, human. How it is done: Balb-3T3 cells and ARPE-19 cells were genetically modified to express and secrete murine IL-22 and human IL-22, respectively. The ability of the genetically modified ARPE-19 cells to produce active hIL-22 in vitro was assessed by the induction of IL-10 production by Colo205 cells, which are derived from human colonic epithelium.
Generation of IL-22 response curve. Col205 cells were seeded at a density of 2×10^5 cells/well in a 96 well plate and starved in serum free media overnight. The serum free media was removed from the wells and the cells were treated with rhIL-22 (peprotech Cat #200-22) diluted in RPMI/10% FBS at half log dilutions to generate final concentrations of 1000, 316.46, 100.14, 31.69, 10.02, 3.17, 1 and 0.32 pg/ml. The plate was incubated overnight at 37 C, 5% CO2 for ˜18 h. The supernatant was transferred to a new 96 well plate and centrifuged.
Biological activity of hIL-22 produced by genetically modified ARPE-19 cells. Col205 cells were seeded at a density of 2×10^5 cells/well in a 96 well plate and starved in serum free media overnight. The serum free media was removed and the cells were treated with filter sterilized supernatant from hIL22 producing ARPE-19 cells (ARPE-19 IL-22) or unmodified ARPE-19 cells (ARPE-19 WT) diluted in RPMI/10% FBS at final concentrations of 1%, 0.5%, 0.25% and 0.125%. The plate was incubated overnight at 37 C, 5% CO2 for ˜18 h. […]
In general terms: An ELISA detects its analyte on a solid surface through an enzyme-linked reagent.

Series [3] addresses T1, IL-22 (Homo sapiens, UniProt Q9GZX6).
T1 construct: made in house; host or cells: genetically modified ARPE-19 cells; filter-sterilized culture supernatant, not purified
T1 sequence (Q9GZX6 34-179): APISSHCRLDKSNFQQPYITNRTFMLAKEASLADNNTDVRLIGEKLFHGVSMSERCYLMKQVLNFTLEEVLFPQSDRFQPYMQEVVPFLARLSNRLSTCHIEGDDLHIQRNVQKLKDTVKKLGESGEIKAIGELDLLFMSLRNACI
Nature of the series: Inhibition of IL22 activity in Col205 cells. Conditions: ARPE IL-22 supernatant 1%; rhIL22BP 100, 50, 25 and 1 ng/ml. It counts as cell-based. How it is done:
Inhibition of IL22 activity in Col205 cells. Col205 cells were seeded at a density of 2×10^5 cells/well in a 96 well plate and starved in serum free media overnight. The serum free media was removed and the cells were treated with 190 ul of recombinant human IL-22 binding protein (rhIL22BP) diluted in RPMI/10% FBS at concentrations of 100, 50, 25 and 1 ng/ml. Filter sterilized supernatant from hIL22-producing ARPE-19 cells (ARPE IL-22) or unmodified ARPE-19 cells (ARPE WT) was diluted 1:5 in RPMI/10% FBS and 10 ul was added to the wells for a final concentration of 1%. The plate was incubated overnight at 37 C, 5% CO2 for ˜18 h. The supernatant was transferred to a new 96 well plate and centrifuged.

As to “human IL-10: human IL-10 protein in plasma”, in series [1], the “half-life of human IL-10 in plasma” value is on record as “about 2 hours”.

B1: rhIL-22: rhIL-22 (peprotech Cat #200-22) (protein, UniProt Q9GZX6 34-179, looked up)
Interleukin-22: APISSHCRLDKSNFQQPYITNRTFMLAKEASLADNNTDVRLIGEKLFHGVSMSERCYLMKQVLNFTLEEVLFPQSDRFQPYMQEVVPFLARLSNRLSTCHIEGDDLHIQRNVQKLKDTVKKLGESGEIKAIGELDLLFMSLRNACI
As for B1, in series [2], the “IL-10 production by Colo205 cells” value was “induced IL-10 production”.

B2: hIL-22: human IL-22 in filter sterilized supernatant from hIL22 producing genetically modified ARPE-19 cells (protein, UniProt Q9GZX6 34-179, looked up)
Interleukin-22: APISSHCRLDKSNFQQPYITNRTFMLAKEASLADNNTDVRLIGEKLFHGVSMSERCYLMKQVLNFTLEEVLFPQSDRFQPYMQEVVPFLARLSNRLSTCHIEGDDLHIQRNVQKLKDTVKKLGESGEIKAIGELDLLFMSLRNACI
For B2, the “IL-10 production by Colo205 cells” value in series [2] was “functionally active”.

B3: rhIL22BP: recombinant human IL-22 binding protein, an endogenous and specific IL-22 inhibitor (protein, UniProt Q969J5 22-263, looked up)
Interleukin-22 receptor …: TQSTHESLKPQRVQFQSRNFHNILQWQPGRALTGNSSVYFVQYKIMFSCSMKSSHQKPSGCWQHISCNFPGCRTLAKYGQRQWKNKEDCWGTQELSCDLTSETSDIQEPYYGRVRAASAGSYSEWSMTPRFTPWWETKIDPPVMNITQVNGSLLVILHAPNLPYRYQKEKNVSIEDYYELLYRVFIINNSLEKEQKVYEGAHRAVEIEALTPHSSYCVVAEIYQPMLDRRSQRSEERCVEIP
Consider B3, for which, in series [3], the “IL-10 production induced by hIL-22 in the presence of rhIL22BP” value was “blocked”.
